According to patent US20210060185:

Columns and labels:
[1] = test system: T1, N-His Ana GvpC with ssrA degradation tag (engineered Anabaena flos-aquae GvpC, ClpXP-sensitive)
T1 sequence: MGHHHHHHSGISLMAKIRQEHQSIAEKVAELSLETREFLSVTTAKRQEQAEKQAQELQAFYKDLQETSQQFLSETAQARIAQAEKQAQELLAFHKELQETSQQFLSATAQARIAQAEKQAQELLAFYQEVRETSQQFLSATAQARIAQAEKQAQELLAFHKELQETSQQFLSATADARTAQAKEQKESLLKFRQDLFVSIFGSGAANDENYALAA

[2] = test system: T2, WT N-His-Ana-GvpC
T2 sequence: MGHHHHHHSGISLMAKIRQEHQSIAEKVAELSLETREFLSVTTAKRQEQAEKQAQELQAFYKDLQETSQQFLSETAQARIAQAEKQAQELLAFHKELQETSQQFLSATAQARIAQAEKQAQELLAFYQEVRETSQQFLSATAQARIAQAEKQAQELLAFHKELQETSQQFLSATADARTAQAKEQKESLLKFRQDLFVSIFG

[3] = test system: dGvpC (Ana GvpC with SG-AANDENYALAA at the C-terminus, encoded in the acoustic sensor gene for ClpXP)

Row | Substance | 50% collapse pressure after ClpXP exposure (FIG. 9D) [1] | degradation on Coomassie-stained SDS-PAGE [1] | hydrostatic collapse midpoint shift (pressurized absorbance spectroscopy) [1] | increase in nonlinear CNR (FIG. 9E) [1] | nonlinear (x-AM) ultrasound contrast enhancement [1] | collapse pressure, ultrasound contrast and SDS-PAGE [2] | nonlinear CNR with ClpXP induction (FIG. 10F) [3] | nonlinear ultrasound contrast in the mouse colon [3]
1 | ClpXP in the reconstituted cell-free TX-TL system (purified Flag-ClpXdeltaNLinkedHexamer-His6 and ClpP from the pBEST-ClpP plasmid) | a reduction of “50% collapse” pressure from about 476 kPa to about 223 kPa | Gel electrophoresis performed after incubating GVSClpXP with this cell-free extract showed significant degradation of the engineered GvpC, compared to a negative control condition in which the extract was pre-treated with a protease inhibitor | a substantial weakening of the GV shell upon ClpX exposure, with the hydrostatic collapse midpoint shifting by nearly 250 kPa | FIG. 9E shows an 860% increase in CNR | a 17 dB enhancement in the nonlinear contrast produced by GVSClpXP at an acoustic pressure of 477 kPa, in response to ClpXP activity | Control GVs containing wild type GvpC showed no sensitivity to ClpXP |  | 
2 | ClpXP of E. coli Nissle 1917 (native, or ClpX and ClpP cloned from the Nissle genome under the pBAD promoter) |  |  |  |  |  |  | FIG. 10F shows a nonlinear CNR increase from 15.9 to 22.6 | Cells induced to express this enzyme showed enhanced nonlinear contrast compared to cells not expressing ClpXP
